Experimental data as given in patent publication US9555344.

Legend:
Concanavalin A [1] = molecular target: Concanavalin A (UniProt P02866); test: Con A Sepharose affinity chromatography (Con A assay); bound albumin as percent of load
Concanavalin A [2] = molecular target: Concanavalin A (UniProt P02866); test: Con A Sepharose affinity chromatography, 100 mg rHA loaded; albumin monomer in eluate by GP-HPLC as percent of load; sample final product
Concanavalin A [3] = molecular target: Concanavalin A (UniProt P02866); test: Con A Sepharose affinity chromatography, 100 mg rHA loaded; albumin monomer in eluate by GP-HPLC as percent of load; sample SP-FF2 flow through & washings
Concanavalin A [4] = molecular target: Concanavalin A (UniProt P02866); test: Con A Sepharose affinity chromatography, 100 mg rHA loaded; albumin monomer in eluate by GP-HPLC as percent of load; sample PBA flow through & washings

| Substance | content of Con A binding material (Concanavalin A [1]) | ConA-binding rHA (% of load) (Concanavalin A [2]) | ConA-binding rHA (% of load) (Concanavalin A [3]) | ConA-binding rHA (% of load) (Concanavalin A [4]) |
| --- | --- | --- | --- | --- |
| rHA used to spike the Pichia culture medium (from UniProt P02768 25-609) | 0.57 % (w/w) |  |  |  |
| rHA purified from the Pichia pastoris culture medium in accordance with the process of Example 1 (from UniProt P02768 25-609) | 0.22 % (w/w) |  |  |  |
| recombinant human albumin (rHA) from a non-mutant (non-pmt1) Saccharomyces cerevisiae strain, purified by the process of Example 1 (from UniProt P02768 25-609) |  | 0.28 % of load | 0.32 % of load | 0.55 % of load |
